According to FireProtDB (doi:10.1016/j.jmb.2004.06.079):

Settings: Chloroflexus aurantiacus (strain ATCC 29366 / DSM 635 / J-10-fl), Thermal, CD, whole UniProt chain shown

B1: Malate dehydrogenase wild type, P80040 (protein)
chain: MRKKISIIGAGFVGSTTAHWLAAKELGDIVLLDFVEGVPQGKALDLYEASPIEGFDVRVTGTNNYADTANSDVIVVTSGAPRKPGMSREDLIKVNADITRACISQAAPLSPNAVIIMVNNPLDAMTYLAAEVSGFPKERVIGQAGVLDAARYRTFIAMEAGVSVEDVQAMLMGGHGDEMVPLPRFSTISGIPVSEFIAPDRLAQIVERTRKGGGEIVNLLKTGSAYYAPAAATAQMVEAVLKDKKRVMPVAAYLTGQYGLNDIYFGVPVILGAGGVEKILELPLNEEEMALLNASAKAVRATLDTLKSL
For B1, the Tm (pH 4.4, sodium acetate 10 mM) was 80.4 °C, the Tm (pH 6, potassium phosphate 10 mM) was 79.4 °C and the Tm (pH 7.5, potassium phosphate 10 mM) was 67.8 °C.
